Drawing on the supplement of paper PMC10567573, this text covers protein stability index for 72 sequences.

± gives the standard deviation.

The series is described as follows: protein stability index of a GFP-peptide fusion (GPS, HEK-293T) (PSI 1-6); higher = more stable.
[1] abbreviates: treatment: DMSO, c terminus: a fixed tail appended.
Setting [2] is: treatment: MLN4924 1 uM, 8 h, c terminus: a fixed tail appended.
The mark [3] stands for this setting: treatment: DMSO, c terminus: native.
Where [4] appears, read: treatment: MLN4924 1 uM, 8 h, c terminus: native.
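Also: 24-mer peptide tiles fused after GFP, lentivirally expressed, FACS-sorted into six equal bins by GFP/DsRed ratio, decoded by Illumina sequencing, PSI is the read-weighted mean bin number.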

With IVRRFLNICENTEGAIAVHCKAGL [CDC14A], the protein stability index turned out to be 2.36 ± 0.39 under setting [1] and 2.11 ± 0.23 under setting [2].

For the sequence ASTPAQTAAGGQGGPGGPGSDKQQ [NR2F2], the protein stability index reads like this: under setting [1], 5.58 ± 0.26; under setting [2], 5.59 ± 0.3.

For the sequence TRHLKRLALMIQSSGNTVLLLILC [TMEM192], the protein stability index was determined as 2.55 ± 0.41 under setting [1] and 2.35 ± 0.29 under setting [2].

As for PQQPVMFAQPMMRPPFGAAAVPGT [SNAP91], the protein stability index worked out at 3.75 ± 0.16 under setting [1] and 3.76 ± 0.3 under setting [2].

On to VHASGWNKILVPLVLLRQMLLELT [BCL2L13], for which the protein stability index was determined as 2.2 ± 0.3 under setting [1] and 2.3 ± 0.24 under setting [2].

Take DITAYLFGFFFGRTPLIKLSPKKT [CDS1]: the protein stability index reads like this: under setting [1], 3.11 ± 0.64; under setting [2], 2.73 ± 0.46.

For the sequence DKITGQSLGYGFVNYSDPNDADKA [ELAVL3], the protein stability index runs as follows: under setting [1], 4.81 ± 0.24; under setting [2], 4.82 ± 0.15.

HPPSHWPLIKATVGLIRNLALCPA [CTNNB1]: the protein stability index is 2.65 ± 0.53 under setting [1] and 2.81 ± 0.88 under setting [2].

Sequence NGIGAVLDFTHPKARDWFQGHLRR [MYORG] had a protein stability index under setting [1] of 2.75 ± 0.34 and a protein stability index under setting [2] of 2.64 ± 0.27.

QEQLLECNKLCGRGQSRQLSPET [SLC2A12]: the protein stability index turned out to be 4.21 ± 0.43 under setting [3] and 4.61 ± 0.46 under setting [4].

Take VEVISDTLSKPSPMPVSQECFETL [CHGA]: the protein stability index is 3.85 ± 0.092 under setting [1] and 3.87 ± 0.25 under setting [2].

The sequence EVRLVPVSFEDPEFKSSFSQSFSL [ATE1] gave a protein stability index under setting [1] of 2.56 ± 0.41 and a protein stability index under setting [2] of 2.74 ± 0.39.

Take KPLTLEALGHLGNDDSADYQHFLQ [DLC1]: the protein stability index by setting is: under setting [1], 4.23 ± 0.12; under setting [2], 4.33 ± 0.15.

On to SWEVVRNPLIASSFSLVKLVLRRQ [C22orf31], for which the protein stability index by setting is: under setting [1], 2.52 ± 0.53; under setting [2], 2.21 ± 0.28.

Regarding ILSACSPYFRAMFTGELAESRQTE [KLHL20], the protein stability index reads like this: under setting [1], 2.06 ± 0.086; under setting [2], 2.48 ± 0.33.

For the sequence FYTAITKKIFKSHLKSSRNSTSVK [P2RY14], the protein stability index reads like this: under setting [1], 2.18 ± 0.33; under setting [2], 2.32 ± 0.55.

Regarding AEELALEQAKKESEDQKRLKQAKE [CHCHD3], the protein stability index reads like this: under setting [1], 5.72 ± 0.22; under setting [2], 5.41 ± 0.29.

For QARLRDVSRREGALGWAPAAPPPL [ZBED3], the protein stability index is 3.44 ± 0.41 under setting [1] and 3.6 ± 0.35 under setting [2].

In turn, YNIATRRKALKNPSEEYGKILEVV [MLH1] gave a protein stability index under setting [2] of 2.74 ± 0.48.

Take SLNRACHQQNKIKDLQKEQKTLQV [CEP70]: the protein stability index runs as follows: under setting [1], 3.53 ± 0.66; under setting [2], 3.45 ± 0.45.

With FAIPVGSGLGYIAGSKVKDMAGDW [SPNS1], the protein stability index runs as follows: under setting [1], 2.35 ± 0.28; under setting [2], 2.21 ± 0.44.

As to NAREESLVEELSPASEKKPVPPSE [BCL2L13], the protein stability index turned out to be 5.33 ± 0.27 under setting [1] and 5.47 ± 0.14 under setting [2].

Take LAGTQLLYAFFTRTHGDMHSLVRS [TRIB3]: the protein stability index is, setting by setting: under setting [1], 3.13 ± 0.38; under setting [2], 3.05 ± 0.35.

For the sequence PLHLSALRDDVLCARMLYNYGADT [ASB7], the protein stability index was 2.27 ± 0.15 under setting [1] and 2.48 ± 0.38 under setting [2].

On to KIGYHLLYYLRASKAAAGKMNLYE [INTS3], for which the protein stability index reads like this: under setting [1], 2.3 ± 0.49; under setting [2], 2.25 ± 0.23.

For the sequence NEKETMQSLNDRLASYLDRVRSLE [KRT18], the protein stability index is, setting by setting: under setting [1], 3.61 ± 0.23; under setting [2], 3.54 ± 0.28.

In the case of AGRPSLLRHDEVRTYFHEFGHVMH [NLN], the protein stability index under setting [1] is 2.48 ± 0.13 and the protein stability index under setting [2] stood at 2.45 ± 0.47.

As for LKTLEEGLEGLEDAPPVELQLLHE [FANCE], the protein stability index is, setting by setting: under setting [1], 4.81 ± 0.26; under setting [2], 4.91 ± 0.38.

Regarding EERAAPVLSCEAATQTERRLDLAA [FAM189A2], the protein stability index is 5.05 ± 0.28 under setting [1] and 4.99 ± 0.12 under setting [2].

On to TFLPDNFSPAKPKPSKELKPLLGS [MYORG], for which the protein stability index reads like this: under setting [1], 3.52 ± 0.088; under setting [2], 3.69 ± 0.28.

For the sequence YDPFRDAVTLRCGHNFCRGCVSRC [TRIM35], the protein stability index runs as follows: under setting [1], 2.69 ± 0.46; under setting [2], 2.74 ± 0.4.

For the sequence SPLLSQETAGQKPLSVHRPPTSGC [TSPAN10], the protein stability index was 4.4 ± 0.17 under setting [1] and 4.46 ± 0.18 under setting [2].

Regarding LEQCSASIEVGGSVNFDGETIEGA [FEM1C], the protein stability index under setting [1] worked out at 5.4 ± 0.3 and the protein stability index under setting [2] is 5.14 ± 0.57.

Take FSKQIVLRGKSIKRAPGEETEKEE [NEUROD6]: the protein stability index came out at 4.94 ± 0.28 under setting [1] and 5.1 ± 0.34 under setting [2].

Under setting [2], GARPLSTRVPRAAIVFTDGRAQDD [MATN2] showed a protein stability index of 4.48 ± 0.68.

Consider TRVNLSSDTESTDLPSSTPVANSG [DLC1], for which the protein stability index runs as follows: under setting [1], 5.05 ± 0.1; under setting [2], 5.26 ± 0.11.

On to AERLGVTFFEVSPLCNFNIIESFT [RAB40A], for which the protein stability index worked out at 2.32 ± 0.65 under setting [1] and 2.5 ± 0.46 under setting [2].

For YCDLPQLFQLSCSSTQLNELLLFA [OR3A1], the protein stability index by setting is: under setting [1], 2.61 ± 0.36; under setting [2], 2.64 ± 0.57.

For YILLVGYPPFWDEDQHRLYQQIKA [CAMK2D], the protein stability index runs as follows: under setting [1], 2.46 ± 0.099; under setting [2], 2.54 ± 0.67.

As for AFEFKKPVRPVSRGCLHSHGLQEG [CDC25A], the protein stability index is, setting by setting: under setting [1], 2.87 ± 0.28; under setting [2], 2.82 ± 0.23.

On to HIIHVWEETGSRFHNCLIQLYCEK [VPS39], for which the protein stability index runs as follows: under setting [1], 2.44 ± 0.4; under setting [2], 2.37 ± 0.36.

Take ILKSQKERQCALRVFKARIYTNRY [FBXO39]: the protein stability index reads like this: under setting [1], 2.41 ± 0.35; under setting [2], 2.46 ± 0.29.

STAKKEDINLSVRKLLNRHNIVFG [TRIP13]: the protein stability index by setting is: under setting [1], 2.5 ± 0.27; under setting [2], 2.61 ± 0.24.

Consider CIENNIDLQVNRNFSLATNTKYSV [R3HDM1], for which the protein stability index runs as follows: under setting [1], 2.59 ± 0.24; under setting [2], 2.31 ± 0.43.

Turning to SWREAKVSWFGSPTTSFLSISKLS [PWWP2B], the protein stability index runs as follows: under setting [1], 2.15 ± 0.46; under setting [2], 2.44 ± 0.43.

For the sequence TAEMARVLTDSNHVPLQRLSLLVH [FBXO33], the protein stability index reads like this: under setting [1], 2.83 ± 0.39; under setting [2], 2.79 ± 0.096.

For the sequence SISRGRHARTHPQTALLESSCENK [MATN2], the protein stability index turned out to be 4.87 ± 0.22 under setting [1] and 4.88 ± 0.27 under setting [2].

With RPPGHHAQHSLMDGYCMFNHVAVA [HDAC6], the protein stability index reads like this: under setting [1], 2.4 ± 0.43; under setting [2], 2.27 ± 0.23.

For QYEEIALKSKAEAEALYQTKFQEL [KRT71], the protein stability index reads like this: under setting [1], 4.08 ± 0.35; under setting [2], 4.18 ± 0.15.

Take CYKGHLEMVRFLLEAGADQEHKTD [ANKRD17]: the protein stability index is, setting by setting: under setting [1], 2.91 ± 0.13; under setting [2], 3.02 ± 0.32.

With EGEEDATSEVDKRRTRPRHHHGRS [CHGB], the protein stability index is, setting by setting: under setting [1], 5.35 ± 0.47; under setting [2], 5.33 ± 0.28.

In the case of NFGFDLLVTYTNRYIIFKRNTLNQ [GMCL1], the protein stability index runs as follows: under setting [1], 2.1 ± 0.15; under setting [2], 2.47 ± 0.56.

Take SQVSMWDQRWQDHQPLLPITDVP [APBB1IP]: the protein stability index turned out to be 2.63 ± 0.55 under setting [3] and 3.22 ± 0.51 under setting [4].

SSFFTCNQKCQLRLLKTLETSRSH [ATP23]: the protein stability index by setting is: under setting [1], 2.44 ± 0.31; under setting [2], 2.58 ± 0.33.

For EGKMYTARKGKGAFCNGQKLQVSQ [IMPA1], the protein stability index is, setting by setting: under setting [1], 3.52 ± 0.33; under setting [2], 3.93 ± 0.32.

On to LSLFVQKLGNLMSLDISGHMILEN [ZER1], for which the protein stability index is 3.24 ± 0.06 under setting [1] and 3.42 ± 0.48 under setting [2].

Regarding KVHMKDVMSALWVSGLDSSYLREQ [GAN], the protein stability index was determined as 2.1 ± 0.47 under setting [1] and 2.23 ± 0.26 under setting [2].

As to SLMPLQKSISPWKSPPQLRQFLPE [DENND6A], the protein stability index under setting [1] turned out to be 2.72 ± 0.21 and the protein stability index under setting [2] is 2.51 ± 0.52.

Regarding LADDHLIEVNGENVEDASHEEVVE [PDZK1], the protein stability index reads like this: under setting [1], 5.65 ± 0.1; under setting [2], 5.54 ± 0.24.

As for EEEKKKMEESKAKFENLCKLMKEI [HSP90AB1], the protein stability index runs as follows: under setting [1], 4.43 ± 0.36; under setting [2], 4.58 ± 0.49.

Take QAGDKDLDGQLDFEEFVHYLQDHE [SLC25A25]: the protein stability index by setting is: under setting [1], 5.19 ± 0.23; under setting [2], 4.96 ± 0.23.

In turn, TTTVCLVAAALRYLQIFATRRSCI [FAM189A2] returned a protein stability index under setting [1] of 2.98 ± 0.42 and a protein stability index under setting [2] of 2.89 ± 0.25.

For SVEAGGSVHFDGETIEGAPPLWAA [FEM1A], the protein stability index is 4.09 ± 0.15 under setting [1] and 4.12 ± 0.48 under setting [2].

In the case of GQPAPVSMVPPSPAMAASKALGSD [SNAP91], the protein stability index is 5.02 ± 0.32 under setting [1] and 5.01 ± 0.18 under setting [2].

In the case of EAGGRFVAFSGEGQSLRKKGRKP [UFD1], the protein stability index amounted to 2.75 ± 0.78 under setting [3] and 3.29 ± 0.79 under setting [4].

Turning to TPFLTNHGAHKAEKKLFECLTCGK [ZNF263], the protein stability index runs as follows: under setting [1], 3.32 ± 0.34; under setting [2], 3.53 ± 0.67.

In the case of RSSLLACILLSALGYLLLGAATNV [MFSD9], the protein stability index by setting is: under setting [1], 2.9 ± 0.34; under setting [2], 3.44 ± 0.26.

For the sequence KATEPTETVQTWIELLTGETWNPF [GOLPH3L], the protein stability index reads like this: under setting [1], 2.36 ± 0.13; under setting [2], 2.5 ± 0.34.

Turning to AKFDFLTRKHHCRRCGKCFCDRCC [ZFYVE21], the protein stability index runs as follows: under setting [1], 3.08 ± 0.29; under setting [2], 3.45 ± 0.44.

Take EGLELTEQTFSPAKSLSFRKGELV [ADD1]: the protein stability index is 4 ± 0.39 under setting [1] and 4.2 ± 0.34 under setting [2].

In the case of QIMQGLEHPFLVNLWYSFQDEEDM [STK32A], the protein stability index came out at 2.19 ± 0.37 under setting [1] and 2.37 ± 0.36 under setting [2].

As for LANPVLESTPVGTVVGLFNVRDRD [PCDHGC5], the protein stability index by setting is: under setting [1], 4.08 ± 0.35; under setting [2], 4.06 ± 0.34.
